Article PMC3582507, “A Safeguard Mechanism Regulates Rho GTPases to Coordinate Cytokinesis with the Establishment of Cell Polarity” (PLoS Biology, 2013)

T1: 6His-Gps1-1-290 (S. cerevisiae, UniProt Q99299 1-290)
T1 construct: Gps1, budding yeast, ORF YPL158C, amino acids 1-290; also called 6His-GPS1 (amino acids 1-290); source: E. coli BL21 (DE3), purified (Ni-NTA agarose)
T1 sequence (looked up): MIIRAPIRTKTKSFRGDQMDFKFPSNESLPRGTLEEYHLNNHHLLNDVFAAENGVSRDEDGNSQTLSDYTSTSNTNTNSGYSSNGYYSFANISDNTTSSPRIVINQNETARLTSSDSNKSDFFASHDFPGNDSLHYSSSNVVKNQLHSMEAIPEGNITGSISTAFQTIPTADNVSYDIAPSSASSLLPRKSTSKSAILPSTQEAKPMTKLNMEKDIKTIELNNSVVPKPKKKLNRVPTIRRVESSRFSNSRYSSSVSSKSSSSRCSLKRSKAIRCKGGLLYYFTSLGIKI


Biological target: T1, 6His-Gps1-1-290
Assay: pull-down; 6His-Gps1-1-290 bound to Ni-NTA agarose beads, incubated with GST or GST fusion proteins 1 h at 4°C in 50 mM Tris-HCl pH 7.4, 10% glycerol, 100 mM NaCl, 1 mM EDTA, 1 mM DTT, 0.5% NP-40; SDS-PAGE and Western blotting
Conditions: both partners purified

binding result	Binder
binds	GST-Cdc42 (natural protein, Cdc42, Rho GTPase of budding yeast; source: E. coli BL21 (DE3), purified) not shown
binds	GST-Cdc42-Q61L (natural protein, Cdc42, Rho GTPase of budding yeast, nucleotide-locked mutant Q61L; source: E. coli BL21 (DE3), purified) not shown
binds	GST-Cdc42-D57Y (natural protein, Cdc42, Rho GTPase of budding yeast, nucleotide-locked mutant D57Y; source: E. coli BL21 (DE3), purified) not shown
binds	GST-Rho1 (natural protein, S. cerevisiae, UniProt P06780 1-209, looked up, Rho1, Rho GTPase of budding yeast; source: E. coli BL21 (DE3), purified) MSQQVGNSIRRKLVIVGDGACGKTCLLIVFSKGQFPEVYVPTVFENYVADVEVDGRRVELALWDTAGQEDYDRLRPLSYPDSNVVLICFSIDLPDSLENVQEKWIAEVLHFCQGVPIILVGCKVDLRNDPQTIEQLRQEGQQPVTSQEGQSVADQIGATGYYECSAKTGYGVREVFEAATRASLMGKSKTNGKAKKNTTEKKKKKCVLL
binds	GST-Rho1-G19V (natural protein, S. cerevisiae, UniProt P06780 1-209, looked up, Rho1, Rho GTPase of budding yeast, nucleotide-locked mutant G19V; source: E. coli BL21 (DE3), purified) MSQQVGNSIRRKLVIVGDVACGKTCLLIVFSKGQFPEVYVPTVFENYVADVEVDGRRVELALWDTAGQEDYDRLRPLSYPDSNVVLICFSIDLPDSLENVQEKWIAEVLHFCQGVPIILVGCKVDLRNDPQTIEQLRQEGQQPVTSQEGQSVADQIGATGYYECSAKTGYGVREVFEAATRASLMGKSKTNGKAKKNTTEKKKKKCVLL
binds	GST-Rho1-G22A (natural protein, S. cerevisiae, UniProt P06780 1-209, looked up, Rho1, Rho GTPase of budding yeast, nucleotide-locked mutant G22A; source: E. coli BL21 (DE3), purified) MSQQVGNSIRRKLVIVGDGACAKTCLLIVFSKGQFPEVYVPTVFENYVADVEVDGRRVELALWDTAGQEDYDRLRPLSYPDSNVVLICFSIDLPDSLENVQEKWIAEVLHFCQGVPIILVGCKVDLRNDPQTIEQLRQEGQQPVTSQEGQSVADQIGATGYYECSAKTGYGVREVFEAATRASLMGKSKTNGKAKKNTTEKKKKKCVLL
